Reference: IntAct's records for PubMed 24590075

B1: Zinc finger MYND domain-containing protein 11 (Mus musculus), Q8R5C8 (parent)
chain: MARLTKRRQADTKAIQHLWAAIEIIRNQKQIANIDRITKYMSRVHGMHPKETTRQLSLAVKDGLIVETLTVGCKGSKAGIEQEGYWLPGDEIDWETETHDWYCFECHLPGEVLICDLCFRVYHSKCLSDEFRLRDSSSHWQCPVCRSIKKKHSNKQEMGTYLRFIVSRMKERAIDLNKKGKDSKHPMYRRLVHSAVDVPTIQEKVNEGKYRSYEEFKADAQLLLHNTVIFYGADSEQADIARMLYKDTCHELDELQLCKNCFYLSNARPDNWFCYPCIPNHELVWAKMKGFGFWPAKVMQKEDNQVDVRFFGHHHQRAWIPSENIQDITVNVHRLHVKRSMGWKKACDELELHQRFLREGRFWKSKNEDRGEEEAESSISSTSNEQLKVTQEPRAKKGRRNQSVEPKKEEPEPETEAVSSSQEIPTMPQPIERVSVSTQTKKLSASSPRMLHRSTQTTSDGVCQSMCHDKYTKIFNDFKDRMKSDHKRETERVVREALEKLRSEMEEEKRQAVNKAVASLQGDMDRKGKQLKEKCKEEFVEEIKKLAAQHKQLISQTKKKQWCYNCEEEAMYHCCWNTSYCSIKCQQEHWHAEHKRTCRRKR

Assays:
[1] = variants of: B1; settings: with h33_human H3-3A
[2] = variants of: B1; settings: with h33_human H3-3A; remark: listed apart in the source

| Variant | effect of a mutation on the interaction [1] | effect of a mutation on the interaction [2] |
| --- | --- | --- |
| N266A | disrupting interaction strength | decreasing interaction strength |
| D307N |  | decreasing interaction strength |
| E251A | disrupting interaction strength | decreasing interaction strength |
| W294A | disrupting interaction strength | decreasing interaction strength |
| F291A | disrupting interaction strength |  |
| F310A | disrupting interaction strength | decreasing interaction strength |
| R168A | disrupting interaction strength | decreasing interaction strength |
